Paper PMC11602973, “Structural basis of nucleic acid recognition by the N-terminal cold shock domain of the plant glycine-rich protein AtGRP2”

Key:
AtGRP2-CSD1-79 = target: T1, AtGRP2-CSD1-79 (Arabidopsis thaliana, UniProt Q41188 1-79); experiment: intrinsic Trp fluorescence quenching; 20 mM sodium phosphate pH 6.5, 50 mM NaCl, 25 C (fluorescence); NMR titrations in the same buffer plus 250 uM PMSF, 3 mM NaN3, 5% D2O, 298 K; settings: protein: recombinant; tags: N-terminal Trx(6 aa)-His6-TEV tag, cleaved
T1 sequence: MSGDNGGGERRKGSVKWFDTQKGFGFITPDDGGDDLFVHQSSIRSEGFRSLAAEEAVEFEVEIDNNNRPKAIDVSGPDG

AtGRP2-CSD1-90 WT [1] = target: T2, AtGRP2-CSD1-90 WT (Arabidopsis thaliana, UniProt Q41188 1-90); experiment: fluorescence anisotropy; 20 mM sodium phosphate pH 6.5, 50 mM NaCl, 25 C (fluorescence); NMR titrations in the same buffer plus 250 uM PMSF, 3 mM NaN3, 5% D2O, 298 K; settings: protein: recombinant; tags: N-terminal Trx(6 aa)-His6-TEV tag, cleaved; label: 5'-rhodamine
T2 sequence: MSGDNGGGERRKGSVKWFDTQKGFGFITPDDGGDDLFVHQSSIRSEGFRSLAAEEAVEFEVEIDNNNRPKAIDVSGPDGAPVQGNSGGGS

AtGRP2-CSD1-90 WT [2] = target: T2, AtGRP2-CSD1-90 WT; experiment: NMR HSQC titration; up to 2x molar excess; 20 mM sodium phosphate pH 6.5, 50 mM NaCl, 25 C (fluorescence); NMR titrations in the same buffer plus 250 uM PMSF, 3 mM NaN3, 5% D2O, 298 K; settings: protein: recombinant; tags: N-terminal Trx(6 aa)-His6-TEV tag, cleaved
AtGRP2-CSD1-90 F26A = target: T3, AtGRP2-CSD1-90 F26A (Arabidopsis thaliana, UniProt Q41188 1-90, F26A); experiment: fluorescence anisotropy; no saturation; text: binding abolished; 20 mM sodium phosphate pH 6.5, 50 mM NaCl, 25 C (fluorescence); NMR titrations in the same buffer plus 250 uM PMSF, 3 mM NaN3, 5% D2O, 298 K; settings: protein: recombinant; tags: N-terminal Trx(6 aa)-His6-TEV tag, cleaved; label: 5'-rhodamine
T3 sequence: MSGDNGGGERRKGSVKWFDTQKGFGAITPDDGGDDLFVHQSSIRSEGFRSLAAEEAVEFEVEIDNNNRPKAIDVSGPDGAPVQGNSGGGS

AtGRP2-CSD1-90 F37A = target: T4, AtGRP2-CSD1-90 F37A (Arabidopsis thaliana, UniProt Q41188 1-90, F37A); experiment: as above; settings: protein: recombinant; tags: N-terminal Trx(6 aa)-His6-TEV tag, cleaved; label: 5'-rhodamine
T4 sequence: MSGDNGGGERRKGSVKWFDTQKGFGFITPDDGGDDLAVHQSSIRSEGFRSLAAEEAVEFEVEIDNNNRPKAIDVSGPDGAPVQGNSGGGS

AtGRP2-CSD1-90 W17A = target: T5, AtGRP2-CSD1-90 W17A (Arabidopsis thaliana, UniProt Q41188 1-90, W17A); experiment: as above; settings: protein: recombinant; tags: N-terminal Trx(6 aa)-His6-TEV tag, cleaved; label: 5'-rhodamine
T5 sequence: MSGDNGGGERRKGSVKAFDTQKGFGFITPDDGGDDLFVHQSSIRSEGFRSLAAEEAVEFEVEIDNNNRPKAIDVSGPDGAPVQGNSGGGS

AtGRP2-CSD1-90 H39A = target: T6, AtGRP2-CSD1-90 H39A (Arabidopsis thaliana, UniProt Q41188 1-90, H39A); experiment: fluorescence anisotropy; 20 mM sodium phosphate pH 6.5, 50 mM NaCl, 25 C (fluorescence); NMR titrations in the same buffer plus 250 uM PMSF, 3 mM NaN3, 5% D2O, 298 K; settings: protein: recombinant; tags: N-terminal Trx(6 aa)-His6-TEV tag, cleaved; label: 5'-rhodamine
T6 sequence: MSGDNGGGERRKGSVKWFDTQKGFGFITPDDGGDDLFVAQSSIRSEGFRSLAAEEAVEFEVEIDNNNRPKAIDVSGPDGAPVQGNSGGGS

AtGRP2-CSD1-90 R49A = target: T7, AtGRP2-CSD1-90 R49A (Arabidopsis thaliana, UniProt Q41188 1-90, R49A); experiment: as above; settings: protein: recombinant; tags: N-terminal Trx(6 aa)-His6-TEV tag, cleaved; label: 5'-rhodamine
T7 sequence: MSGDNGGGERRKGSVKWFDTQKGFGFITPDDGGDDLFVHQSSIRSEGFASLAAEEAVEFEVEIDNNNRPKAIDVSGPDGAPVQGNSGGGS

AtGRP2-CSD1-90 F48A = target: T8, AtGRP2-CSD1-90 F48A (Arabidopsis thaliana, UniProt Q41188 1-90, F48A); experiment: as above; settings: protein: recombinant; tags: N-terminal Trx(6 aa)-His6-TEV tag, cleaved; label: 5'-rhodamine
T8 sequence: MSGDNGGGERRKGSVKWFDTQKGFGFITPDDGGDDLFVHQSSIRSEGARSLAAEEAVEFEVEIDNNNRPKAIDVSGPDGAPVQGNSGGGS

B1: T7 (ssDNA)
DNA: TTTTTTT
Kd (AtGRP2-CSD1-79): 22 ± 2.4 µM

B2: Rho-U7 (ssRNA)
RNA: UUUUUUU
Kd (AtGRP2-CSD1-90 WT [1]): 76.8 ± 9.7 µM

B3: G7 (ssDNA)
DNA: GGGGGGG
binding result (AtGRP2-CSD1-90 WT [2]): no binding

B4: Rho-T7 (ssDNA)
DNA: TTTTTTT
binding result (AtGRP2-CSD1-90 F26A): no binding | binding result (AtGRP2-CSD1-90 F37A): no binding | binding result (AtGRP2-CSD1-90 W17A): no binding | Kd (AtGRP2-CSD1-90 WT [1]): 17.2 ± 2.4 µM | Kd (AtGRP2-CSD1-90 H39A): 210 ± 36.8 µM | Kd (AtGRP2-CSD1-90 R49A): 45.7 ± 6.8 µM | Kd (AtGRP2-CSD1-90 F48A): 38.6 ± 6.3 µM

B5: A7 (ssDNA)
DNA: AAAAAAA
binding result (AtGRP2-CSD1-90 WT [2]): no binding
